Assay results as given in PMC2754608, “Toll-Like Receptor 4 Decoy, TOY, Attenuates Gram-Negative Bacterial Sepsis” (PLoS ONE, 2009).

B1: myeloid differentiation protein-2 (MD-2) (natural protein, human, UniProt Q9Y6Y9 19-160, looked up)
chain: QKQYWVCNSSDASISYTYCDKMQYPISINVNPCIELKRSKGLLHIFYIPRRDLKQLYFNLYITVNTMNLPKRKEVICRGSDDDYSFCRALKGETVNTTISFSFKGIKFSKGKYKCVVEAISGSPEEMLFCLEFVILHQPNSN
notes: also called hMD-2

Columns and labels:
[1] = biological target: T1, TLR4 full-length ectodomain fused to IgG-Fc (TFE) (human, UniProt O00206 27-631); assay: SPR; BIAcore 3000; TFE, TOY3 or TOY8 (1 µg) amine-coupled (NHS/EDC) on a CM5 chip at about 2,000 RU; BSA on a control portion of the chip; recombinant MD-2 flowed over; nonlinear curve fitting with BIAEVALUATION; conditions: both partners purified
T1 construct: Toll-like receptor 4 (TLR4), human, full-length ectodomain, amino acid residues 27-631; Disulfide-linked dimer through the Fc domain (non-reducing SDS-PAGE); N-glycosylated; source: recombinant CHO cells (dhfr-deficient, MTX amplification), secreted, purified (Protein-A sepharose); not shown: Fc (human IgG1), C-terminal, kept

[2] = biological target: B1; assay: as above; conditions: both partners purified

**Q.** Which Kd [1] does the source give for B1 here?
**A.** ~81 nM

B2: TLR4 decoy receptor-3 (TOY3) (Fc fusion)
chain: EPCVEVVPNITYQCMELNFYKIPDNLPFSTKNLDLSFNPLRHLGSYSFFSFPELQVLDLSRCEIQTIEDGAYQSLSHLSTLILTGNPIQSLALGAFSGLSSLQKLVAVETNLASLENFPIGHLKTLKELNVAHNLIQSFKLPEYFSNLTNLEHLDLSSNKIQSIYCTDLRVLHQMPLLNLSLDLSLNPMNFIQPGAFKEIRLKELALDTNQLKSVPDGIFDRLTSLQKIWLHTNPWDCSCPRIDYLSRWLNKNSQKEQGSAKCSGSGKPVRSIICP
modifications: N-glycosylated (CHO). TLR4 27-227 limits are printed; VLRB.61 fragment limits are only in a figure, so taken from the TV3 hybrid crystal construct (PDB 2Z62, recalled from memory). Hagfish species …
**Q.** With B2 as the binder, how does the Kd [2] read?
**A.** ~76 nM

B3: TLR4 decoy receptor-8 (TOY8) (Fc fusion)
chain: EPCVEVVPNITYQCMELNFYKIPDNLPFSTKNLDLSFNPLRHLGSYSFFSFPELQVLDLSRCEIQTIEDGAYQSLSHLSTLILTGNPIQSLALGAFSGLSSLQKLVAVETNLASLENFPIGHLKTLKELNVAHNLIQSFKLPEYFSNLTNLEHLDLSSNKIQSIYCTDLRVLHQMPLLNLSLDLSLNPMNFIQPGAFKEIRLHKLTLRNNFDSLNVMKTCIQGLAGLEVHRLVLGEFRNEGNLEKFDKSALEGLCNLTIEEFRLAYLDYYLDDIIDLFNCLTNVSSFSLVSVTIERVKDFSYNFGWQHLELVNCKFGQFPTLKLKSLKRLTFTSNKGGNAFSEVDLPSLEFLDLSRNGLSFKGCCSQSDFGTTSLKYLDLSFNGVITMSSNFLGLEQLEHLDFQHSNLKQMSEFSVFLSLRNLIYLDISHTHTRVAFNGIFNGLSSLEVLKMAGNSFQENFLPDIFTELRNLTFLDLSQCQLEQLSPTAFNSLSSLQVLNMASNQLKSVPDGIFDRLTSLQKIWLHTNPWDCSCPRIDYLSRWLNKNSQKEQGSAKCSGSGKPVRSIICP
modifications: N-glycosylated (CHO). TLR4 27-527 limits are printed; VLRB.61 fragment limits are only in a figure, so taken from the TV8 hybrid crystal construct (PDB 2Z63, recalled from memory). Hagfish species …
**Q.** For B3, which Kd [2] is on record?
**A.** ~56 nM
